Experimental data published in PMC9198273.

What was measured:
[1] = target: CXCR3-A C-terminally fused with SmBiT (human) (UniProt P49682)
[2] = target: CXCR3-B C-terminally fused with SmBiT (human) (UniProt P49682)
untagged CXCR3-A (human) = untagged CXCR3-A (human) (UniProt P49682)
[3] = target: CXCR3-A C-terminally fused with SmBiT (human) (UniProt P49682); remark: listed apart in the source
[4] = target: CXCR3-B -30, C-terminally fused with SmBiT (human) (UniProt P49682)
[5] = target: CXCR3-B -40, C-terminally fused with SmBiT (human) (UniProt P49682)
[6] = target: CXCR3-B C-terminally fused with SmBiT (human) (UniProt P49682); remark: listed apart in the source

Row | Table 1: miniGi recruitment to CXCR3-A, EC50 of the chemokine (NanoBiT-based assay) [1] [nM] | Table 1: miniGq recruitment to CXCR3-A, EC50 of the chemokine (NanoBiT-based assay) [1] [nM] | Table 1: β-arrestin-1 recruitment to CXCR3-A, EC50 of the chemokine (NanoBiT-based assay) [1] [nM] | Table 1: β-arrestin-2 recruitment to CXCR3-A, EC50 of the chemokine (NanoBiT-based assay) [1] [nM] | Table 2: β-arrestin-1 recruitment to CXCR3-A, EC50 of the chemokine (NanoBiT-based assay, HEK293T) [1] [nM] | Table 1: β-arrestin-2 recruitment to CXCR3-B, EC50 of the chemokine (NanoBiT-based assay) [2] [nM] | Table 1: Gi2 dissociation in CXCR3-A-expressing cells, EC50 of the chemokine (NanoBRET G protein activity sensor) (untagged CXCR3-A (human)) [nM] | Table 1: Go1 dissociation in CXCR3-A-expressing cells, EC50 of the chemokine (NanoBRET G protein activity sensor) (untagged CXCR3-A (human)) [nM] | Table 1: Gq dissociation in CXCR3-A-expressing cells, EC50 of the chemokine (NanoBRET G protein activity sensor) (untagged CXCR3-A (human)) [nM] | Table 1: cAMP, EC50 of the chemokine for the reduction of intracellular cAMP in CXCR3-A-expressing cells (GloSensor) (untagged CXCR3-A (human)) [nM] | Table 1: β-arrestin-1 recruitment to CXCR3-B, EC50 of the chemokine (NanoBiT-based assay) [2] [nM] | Table 2: β-arrestin-1 recruitment to CXCR3-B, EC50 of the chemokine (NanoBiT-based assay, HEK293T) [2] [nM] | Table 3: miniGi recruitment to CXCR3-A, EC50 of CXCL11 (NanoBiT-based assay, HEK293T) [3] [nM] | Table 3: β-arrestin-1 recruitment to CXCR3-A, EC50 of CXCL11 (NanoBiT-based assay) [3] [nM] | Table 3: miniGi recruitment to CXCR3-B -30, EC50 of CXCL11 (NanoBiT-based assay, HEK293T) [4] [nM] | Table 3: miniGi recruitment to CXCR3-B -40, EC50 of CXCL11 (NanoBiT-based assay, HEK293T) [5] [nM] | Table 3: β-arrestin-1 recruitment to CXCR3-B, EC50 of CXCL11 (NanoBiT-based assay) [6] [nM] | Molecule
1 | 18.2 | 22.2 | 17.8 | 2.9 | 10.7 | 59.2 | 0.9 | 1.9 | 2.3 | 14.1 | – | – | – | – | – | – | – | CXCL10 (from UniProt P02778 22-98) (ligand)
2 | 12.4 | 25.9 | 15.8 | 2.9 | 9.6 | 12.4 | 1.2 | 1.8 | 0.4 | 6.3 | 49.4 | 51.6 | 18.2 | 6.7 | 27.2 | 32.7 | 23.9 | CXCL11 (ligand) FPMFKRGRCLCIGPGVKAVKVADIEKASIMYPSNNCDKIEVIITLKENKGQRCLNPKSKQARLIIKKVERKNF
3 | – | – | – | – | 14.8 | – | – | – | – | – | – | 153 | – | – | – | – | – | CXCL11P2G (ligand) FGMFKRGRCLCIGPGVKAVKVADIEKASIMYPSNNCDKIEVIITLKENKGQRCLNPKSKQARLIIKKVERKNF
4 | – | – | – | 16000 | – | 100000 | 19.9 | 77.8 | 56 | 21.9 | – | – | – | – | – | – | – | CXCL9 (ligand) TPVVRKGRCSCISTNQGTIHLQSLKDLKQFAPSPSCEKIEIIATLKNGVQTCLNPDSADVKELIKKWEKQVSQKKKQKNGKKHQKKKVLKVRKSQRSRQKKTT
